Values belong to the binder of their own block, whether it stands above or below them.
Assays:
[1] = target: the molecule itself; assay: crystal structure; X-ray; sitting drop vapor diffusion at 20 °C; Aip5-C by SeMet-MAD, Aip5-C-3m by molecular replacement
[2] = target: G-actin (monomeric actin used in microscale thermophoresis) (rabbit, UniProt P68135 1-377); assay: MST; 2 µM G-actin mixed 1:1 with Aip5 loop peptide (highest stock 2 mM); G-buffer with 0.05% Tween 20; 25 °C; Kd mode fit; settings: both partners purified

B1: Aip5-C-3m (L1150A, N1162A, S1165C) (domain or fragment, S. cerevisiae, UniProt P43597 1110-1233, looked up)
chain: DSTTQTTEQSKKNNDKPQDVITTSEIRKLNEKEPVYIYTSAAGGGFHMIPRTARLCTILTANRIPFTYRDLGTDDEARKVWKTFSKGRSLPGVVRGHNDLIGNWEEIEEANEDYKLRELIYDTI
notes: Aip5 (YFR016C), budding yeast, residues 1110-1233 with three point mutations; Homodimer in the crystal; also called triple mutant Aip5-C-3m; source: E. coli BL21 (DE3), purified
- binding result [1]: binds

- Kd [2]: 99 ± 76 µM
B2: Aip5 loop peptide (TSLAGGGFHM) (peptide)
peptide: TSLAGGGFHM
notes: also called loop containing peptide; peptides of Aip5 loop
